In the experiment the target is GFP-IQGAP1 ∆GRD (1004–1237 aa deleted) (UniProt P46940 1-1657, 1004–1237 aa deleted). As to the kind of experiment: co-IP.

B1: R-ras (natural protein, mouse (endogenous in NIH-3T3 and MEFs), UniProt P10833 1-218, looked up)
chain: MSSGAASGTGRGRPRGGGPGPRDPPPGETHKLVVVGGGGVGKSALTIQFIQSYFVSDYDPTIEDSYTKICTVDGIPARLDILDTAGQEEFGAMREQYMRAGNGFLLVFAINDRQSFNEVGKLFTQILRVKDRDDFPIVLVGNKADLENQRQVLRSEASSFSASHHMTYFEASAKLRLNVDEAFEQLVRAVRKYQEQELPPSPPSAPRKKDGGCPCVLL
As to B1, the “fold less association with R-ras than IQGAP1, IQGAP1 ∆IQ or IQGAP1 ∆WW” value is 5 fold.

The values are drawn from PMC7521798 (Molecular Biology of the Cell, 2020).
